Results from PMC7060199, “DJ-1 suppresses ferroptosis through preserving the activity of S-adenosyl homocysteine hydrolase” (Nature Communications, 2020).

How the values were obtained:
[1] = target: the molecule itself; test: cross-linking; cells incubated with 2 mM DSS for 30 min at 25 C, quenched with 1 M Tris-HCl pH 7.4; western blot; control and DJ-1 KD
[2] = target: the molecule itself; test: not stated; HEK293T cells with DJ-1 overexpression (Supplementary Fig. 6j)

B1: S-adenosyl homocysteine hydrolase (enzyme, human (endogenous in H1299), UniProt P23526 1-432, looked up)
chain: MSDKLPYKVADIGLAAWGRKALDIAENEMPGLMRMRERYSASKPLKGARIAGCLHMTVETAVLIETLVTLGAEVQWSSCNIFSTQDHAAAAIAKAGIPVYAWKGETDEEYLWCIEQTLYFKDGPLNMILDDGGDLTNLIHTKYPQLLPGIRGISEETTTGVHNLYKMMANGILKVPAINVNDSVTKSKFDNLYGCRESLIDGIKRATDVMIAGKVAVVAGYGDVGKGCAQALRGFGARVIITEIDPINALQAAMEGYEVTTMDEACQEGNIFVTTTGCIDIILGRHFEQMKDDAIVCNIGHFDVEIDVKWLNENAVEKVNIKPQVDRYRLKNGRRIILLAEGRLVNLGCAMGHPSFVMSNSFTNQVMAQIELWTHPDKYPVGVHFLPKKLDEAVAEAHLGKLNVKLTKLTEKQAQYLGMSCDGPFKPDHYRY
notes: S-adenosyl homocysteine hydrolase (SAHH) of H1299 cells; also called SAHH; source: H1299 cell lysate (control KD and DJ-1 KD)
stoichiometry N [1]: 4

B2: SAHH in HEK293T cells (enzyme, UniProt P23526 1-432, looked up)
chain: MSDKLPYKVADIGLAAWGRKALDIAENEMPGLMRMRERYSASKPLKGARIAGCLHMTVETAVLIETLVTLGAEVQWSSCNIFSTQDHAAAAIAKAGIPVYAWKGETDEEYLWCIEQTLYFKDGPLNMILDDGGDLTNLIHTKYPQLLPGIRGISEETTTGVHNLYKMMANGILKVPAINVNDSVTKSKFDNLYGCRESLIDGIKRATDVMIAGKVAVVAGYGDVGKGCAQALRGFGARVIITEIDPINALQAAMEGYEVTTMDEACQEGNIFVTTTGCIDIILGRHFEQMKDDAIVCNIGHFDVEIDVKWLNENAVEKVNIKPQVDRYRLKNGRRIILLAEGRLVNLGCAMGHPSFVMSNSFTNQVMAQIELWTHPDKYPVGVHFLPKKLDEAVAEAHLGKLNVKLTKLTEKQAQYLGMSCDGPFKPDHYRY
notes: S-adenosyl homocysteine hydrolase (SAHH) in HEK293T cells with DJ-1 overexpression; source: HEK293T cells
stoichiometry N [2]: 4
